Patent publication US20170274062A1 (OURO FINO SAUDE ANIMAL LTDA, published 2017)

B1: Exomyc polyprotein 2, Rrp41-P46-P97R1R2 (other)
chain: MAEKPEGLKLIDENGRRIDGRKKYELRPIKMEVGVLKNANGSAYIEWGKNKIIAAVYGPRELHPKHLQRPDRAILRVRYNMAPFSVEETKSPGPDRRSIEISKVIKGALEPALILEMFPRTAIDVFIEVLQADAGTRVAGITAASLALADAGIPMRDLVAACAAGKIEGEIVLDLNKEEDNYGEADVPVAIMPLKNDITLLQMDGYLTKDEFIEAVKLAIKGAKAVYQKQREALKEKYLKIAQEVEGSPKHKVSNDSIRIALTDPDNPRWISAQKDIISYVDETEAATSTITKNQDAQNNWLTQQANLSPAPKGFIIAPENGSGVGTAVNTIADKGIPIVAYDRLITGSDKYDWYVSFDNEKVGELQGLSLAAGLLGKEDGAFDSIDQMNEYLKSHMPQETISFYTIAGSQDDNNSQYFYNGAMKVLKELMKNSQNKIIDLSPEGENAVYVPGWNYGTAGQRIQSFLTINKDPAGGNKIKAVGSKPASIFKGFLAPNDGMAEQAITKLKLEGFDTQKIFVTGQDYNDKAKTFIKDGDQNMTIYKPDKVLGKVAVEVLRVLIAKKNKASRSEVENELKAKLPNISFKYDNQTYKVQGKNINTILVSPVIVTKANVDNPGAAKPEAAKPVAAKPETTKPVAAKPEAAKPEAAKPVAAKPEAAKPVAAKPEAAKPVAAKPEAAKPVAAKPEAAKPVATNTGFSLTNKPKEDYFPMTEGSSNQGKKSEGTPNQGKKAEGAPNQGKKAEGTPNQGKKAEGAPSQQSPTTE
notes: also called Rrp41-P46-97R1R2
B2: Exomyc polyprotein 3, Rrp42-P216A-HSP-NrdF (other)
chain: MGSDNEIVAGIMRDHIINLLKEGKRIDDRGFEDYRPIEIEVGVIEKAEGSALVKLGSTQVLVGIKTSLGEPFPDTPNMGVMTTNVELVPLASPTFEPGPPDERAIELARVIDRGIRESKALNLEKMVIVPGKIVRVVFIDVHVLDHDGNLMDAIGIAAIAALLNARVPKVRYNEETGEVETLDETEPLPVEKIPVPVTFAKIGNILVVDPSLDEELVMDGKITITTDETGHISAVQKSEGGAFKLEEVMYAVETAFKKAEEIRKLILEAVEKAKQLEGQKKAVRKEEELETYNPKDEFNILNPGEISDVLLLDVTPLTLGIETLGGIATPLIPRNTTIPVTKSQIFSTAEDNQTEVTISVVQGERQLAADNKMLGRFNLSGIEAAPRGLPQIEVSFSIDVNGITTVSAKDKKTGKEQTITIKNTSTLSEEEINKMIQEAEENREADALKKDKIETTVRAEGLINQLEKSITDQGEKIDPKQKELLEKQIQELKDLLKEDKTDELKLKLDQIEAAAQSFAQATAQQANTSESDPKADDSNTIDAEIKQDGSGKQDEIKKFTFDLLYKLIELEKDYLYDLYSEVGLAESAIKFSIYNAGKFLQNLGYDSPFSKEETEIEPEIFSQLSARADENHDFFSGNGSSYVMALAEETEDEDWEF
notes: also called Rrp42-HSP-NrdF

Experiments:
[1] = biological target: T1, Exomyc polyprotein 1, Rrp4-P216B-P36-MHP271; test: co-expression in E. coli, co-retention on 500 kDa MWCO tangential filtration, SDS-PAGE
T1 construct: Expressed in E. coli BL21 (DE3) from pMRK-EXOMYC; also called Rrp4-P36-MHP271

[2] = biological target: B2; test: as above

Binder: B1
- binding result [1]: binds
- binding result [2]: binds

Binder: B2
- binding result [1]: binds
